Data: patent US20200199241A1 (Chugai, published 2020)
Where a chain is given by its changes, count along the chain named. In names and notes the source's numbering stands.

B1: IL6R-BP195/IL6R-L (antibody, human IgG1)
heavy: QVQLQESGPGLVKPSETLSLTCAVSGHSISHDHAWSWVRQPPGEGLEWIGFISYSGITNYNPSLQGRVTISRDNSKNTLYLQMNSLRAEDTAVYYCARSLARTTAMDYWGEGTLVTVSSASTKGPSVFPLAPSSKSTSGGTAALGCLVKDYFPEPVTVSWNSGALTSGVHTFPAVLQSSGLYSLSSVVTVPSSSLGTQTYICNVNHKPSNTKVDKKVEPKSCDKTHTCPPCPAPDYLGDDSVFLFPPKPKDTLMISRTPEVTCVVVDVSDEDGEVKFNWYVDGVEVHNAKTKPREEQDNSTYRVVSVLTVLHQDWLNGKEYKCKVSNAALPKPIEKTISKAKGQPREPQVYTLPPSRDELTKNQVSLTCLVKGFYPSDIAVEWESNGQPENNYKTTPPVLDSDGSFFLYSKLTVDKSRWQQGNVFSCSVMHEALHNHYTQESLSLSP
light: DIQMTQSPSSLSASVGDRVTITCRASQDISSYLNWYQQKPGKAPKLLIYYTSRLHSGVPSRFSGSGSGTDFTFTISSLQPEDIATYYCQQGNTLPYTFGQGTKVEIK
notes: Anti-IL-6R human IgG1 variant; copies: 2 + 2
B2: IL6R-BP208/IL6R-L (antibody, human IgG1)
heavy: B1 heavy with Y236L, D298Y, A328K, K332R
light: B1 light
notes: as for B1
B3: IL6R-BP206/IL6R-L (antibody, human IgG1)
heavy: B1 heavy with Y236L, D239G, D270H, D298Y, A328K, K332R
light: B1 light
notes: as for B1
B4: IL6R-BP196/IL6R-L (antibody, human IgG1)
heavy: B1 heavy with D235E, D239G, D298Y
light: B1 light
notes: as for B1
B5: IL6R-BP203/IL6R-L (antibody, human IgG1)
heavy: B1 heavy with D235E, Y236L, D270H, D298Y, A328K, K332R
light: B1 light
notes: as for B1
B6: IL6R-BP197/IL6R-L (antibody, human IgG1)
heavy: B1 heavy with A328D
light: B1 light
notes: as for B1
B7: IL6R-BP213/IL6R-L (antibody, human IgG1)
heavy: B1 heavy with Y236L, D239G, D298Y, A328K, K332R
light: B1 light
notes: as for B1
B8: IL6R-BP211/IL6R-L (antibody, human IgG1)
heavy: B1 heavy with Y236L, D239G, D298Y, K332R
light: B1 light
notes: as for B1
B9: IL6R-BP209/IL6R-L (antibody, human IgG1)
heavy: B1 heavy with D235E, Y236L, D298Y, K332R
light: B1 light
notes: as for B1
B10: IL6R-BP110/IL6R-L (antibody, human IgG1)
heavy: B1 heavy with D235E, Y236L, D239G, D270N, G273P, D298Y, A328K, K332A
light: B1 light
notes: IgG1; Fc variant of IL6R-B3; copies: 2 + 2
B11: IL6R-2B169/IL6R-L (antibody, human IgG1)
heavy: B1 heavy with D235E, Y236L, D239G, D270H, G273P, D298Y, V325I, A328K, K332A
light: B1 light
notes: as for B10
B12: IL6R-2B128/IL6R-L (antibody, human IgG1)
heavy: B1 heavy with D235E, Y236L, D239G, D270H, G273P, A328K, K332A
light: B1 light
notes: as for B10
B13: IL6R-BP912/IL6R-L (antibody, human IgG1)
heavy: B1 heavy with D235E, Y236L, D239G, D270H, G273P, D298Y, A328K, K332R
light: B1 light
notes: as for B10
B14: IL6R-BP121/IL6R-L (antibody, human IgG1)
heavy: B1 heavy with D235E, Y236L, D239G, D270H, G273P, D298Y, A328Q, K332A
light: B1 light
notes: as for B10
B15: antibody with VH3-IgG1-F1324 heavy chain and L(WT)-CK light chain (antibody)
heavy: QVQLQESGPGLVKPSETLSLTCAVSGHSISHDHAWSWVRQPPGEGLEWIGFISYSGITNYNPSLQGRVTISRDNSKNTLYLQMNSLRAEDTAVYYCARSLARTTAMDYWGEGTLVTVSSASTKGPSVFPLAPSSKSTSGGTAALGCLVKDYFPEPVTVSWNSGALTSGVHTFPAVLQSSGLYSLSSVVTVPSSSLGTQTYICNVNHKPSNTKVDKKVEPKSCDKTHTCPPCPAPEAAGGPSVFLFPPKPKDTLYISRTPEVTCVVVDVSHEDPEVKFNWYVDGVEVHNAKTKPREEQYNSTYRVVSVLTVLHQDWLNGKEYKCKVSNKALPAPIEKTISKAKGQPREPQVYTLPPSRDELTKNQVSLTCLVKGFYPSDIAVEWESNGQPENNYKTTPPVLDSDGSFFLYSKLTVDKSRWQQGNVFSCSVMHEALHYHVTQKSLSLSP
light: not shown
notes: L234A/L235A on VH3-IgG1-F890; copies: 2 + 2

Each binder was assayed against T1, FcγRIIb (human, UniProt P31994 43-217, limits assumed) (assay: SPR (Biacore), method of Example 14).
T1 construct: also called FcγIIB; CD32
T1 sequence: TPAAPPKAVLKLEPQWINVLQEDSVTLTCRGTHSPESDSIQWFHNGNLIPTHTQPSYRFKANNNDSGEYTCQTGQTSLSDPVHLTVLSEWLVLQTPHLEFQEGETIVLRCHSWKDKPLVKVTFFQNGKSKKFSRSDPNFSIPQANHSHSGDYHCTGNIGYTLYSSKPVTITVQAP
Source text: (§1) Furthermore, KD(IIaR)/KD(IIb) and KD(IIaH)/KD(IIb) in the table respectively represent the value obtained by dividing the KD value of each variant for FcγRIIaR by the KD value of each variant for FcγRIIb, and the value obtained by dividing the KD value of each variant for FcγRIIaH by the KD value of each variant for FcγRIIb. KD(IIb) of the parent polypeptide/KD(IIb) of the altered polypeptide refers to the value obtained by dividing the KD value of the parent polypeptide for FcγRIIb by the KD value of each variant for FcγRIIb.

| Binder | Kd |
| --- | --- |
| B1 | 50 nM |
| B2 | 32 nM |
| B3 | 200 nM |
| B4 | 220 nM |
| B5 | 49 nM |
| B6 | 58 nM |
| B7 | 180 nM |
| B8 | 220 nM |
| B9 | 51 nM |

Each binder was assayed against T2, FcγRIIIa type V (human, UniProt P08637 17-208, limits assumed) (assay: SPR (Biacore), method of Example 14).
T2 construct: also called FcγRIIIaV; FcγRIIIa(V)
T2 sequence (P08637 17-208 F176V limits assumed): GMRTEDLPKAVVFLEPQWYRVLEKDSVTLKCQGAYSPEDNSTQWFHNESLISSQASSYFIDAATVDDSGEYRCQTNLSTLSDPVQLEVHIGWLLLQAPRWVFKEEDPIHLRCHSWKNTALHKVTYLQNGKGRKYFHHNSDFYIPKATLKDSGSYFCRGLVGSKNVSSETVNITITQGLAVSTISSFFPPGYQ
Source text: as §1

| Binder | Kd |
| --- | --- |
| B1 | 31000 nM |
| B2 | 53000 nM |
| B3 | 69000 nM |
| B4 | 51000 nM |
| B5 | 72000 nM |
| B6 | 33000 nM |
| B7 | 63000 nM |
| B8 | 73000 nM |
| B9 | 41000 nM |

Biological target: T3, FcγRIIa type R (human, UniProt P12318 36-217)
T3 construct: also called FcγRIIaR; FcγRIIa(R)
T3 chain: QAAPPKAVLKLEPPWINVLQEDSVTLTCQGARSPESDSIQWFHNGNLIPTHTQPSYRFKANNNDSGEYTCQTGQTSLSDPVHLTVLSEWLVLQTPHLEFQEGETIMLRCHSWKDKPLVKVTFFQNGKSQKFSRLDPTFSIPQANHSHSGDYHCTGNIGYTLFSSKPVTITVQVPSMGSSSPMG
Test: SPR (Biacore), method of Example 14
Source text: as §1

| Binder | Kd |
| --- | --- |
| B1 | 910 nM |
| B2 | 850 nM |
| B3 | 3100 nM |
| B4 | 3000 nM |
| B5 | 990 nM |
| B6 | 980 nM |
| B7 | 3100 nM |
| B8 | 4100 nM |
| B9 | 1200 nM |

What follows are binders tested against T4, FcγRIa (human, UniProt P12314 16-292, limits assumed) (assay: SPR (Biacore), method of Example 14).
T4 construct: also called CD64
T4 sequence (P12314 16-292 limits assumed): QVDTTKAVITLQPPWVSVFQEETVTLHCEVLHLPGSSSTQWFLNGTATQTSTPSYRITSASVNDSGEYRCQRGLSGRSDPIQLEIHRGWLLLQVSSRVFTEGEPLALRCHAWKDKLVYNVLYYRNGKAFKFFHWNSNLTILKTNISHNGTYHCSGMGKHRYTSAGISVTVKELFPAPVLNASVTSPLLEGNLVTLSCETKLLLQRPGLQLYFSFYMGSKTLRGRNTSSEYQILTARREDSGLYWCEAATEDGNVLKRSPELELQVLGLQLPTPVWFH
Source text: as §1

| Binder | Kd |
| --- | --- |
| B1 | 23 nM |
| B2 | 19 nM |
| B3 | 8.2 nM |
| B4 | 14 nM |
| B5 | 180 nM |
| B6 | 19 nM |
| B7 | 4.1 nM |
| B8 | 4.2 nM |
| B9 | 39 nM |

Each binder was assayed against T5, FcγRIIa type H (human, UniProt P12318 36-217) (assay: SPR (Biacore), method of Example 14).
T5 construct: also called FcγRIIaH; FcγRIIa(H)
T5 sequence: T3 chain with R133H
Source text: as §1

| Binder | Kd |
| --- | --- |
| B1 | 10000 nM |
| B2 | 83000 nM |
| B3 | 24000 nM |
| B4 | 19000 nM |
| B5 | 11000 nM |
| B6 | 12000 nM |
| B7 | 24000 nM |
| B8 | 27000 nM |
| B9 | 10000 nM |

The binders below were run against T6, FcγRIIb (human, UniProt P31994 43-217, limits assumed) (assay: SPR (Biacore), KD of IL6R-B3/IL6R-L divided by KD of the variant).
T6 construct: also called FcgRIIb; FcγIIB
T6 sequence: T1 sequence
Source text: as §1

| Binder | KD(IIb) of the parent polypeptide/KD(IIb) of altered polypeptide |
| --- | --- |
| B10 | 2.1 fold |
| B11 | 2.6 fold |
| B12 | 2.1 fold |
| B13 | 2.1 fold |
| B14 | 2.8 fold |

What follows are binders tested against T6, FcγRIIb (assay: SPR (Biacore), FcγR over captured antibody).

| Binder | Kd |
| --- | --- |
| B10 | 1500 nM |
| B11 | 1200 nM |
| B12 | 1400 nM |
| B13 | 1500 nM |
| B14 | 1100 nM |

What follows are binders tested against T7, FcγRIa (human, UniProt P12314 16-292, limits assumed) (assay: SPR (Biacore), FcγR over captured antibody).
T7 construct: also called FcgRIa; CD64
T7 sequence (P12314 16-292 limits assumed): as above

| Binder | Kd |
| --- | --- |
| B10 | 7.3 nM |
| B11 | 25 nM |
| B12 | 13 nM |
| B13 | 38 nM |
| B14 | 11 nM |

These binders were tested against T8, FcγRIIa type H (human, UniProt P12318 36-217) (assay: SPR (Biacore), FcγR over captured antibody).
T8 construct: also called FcγRIIaH; FcγRIIH
T8 sequence: T3 chain with R133H

| Binder | Kd |
| --- | --- |
| B10 | 47000 nM |
| B11 | 48000 nM |
| B12 | 34000 nM |
| B13 | 38000 nM |
| B14 | 44000 nM |

Each binder was assayed against T9, FcγRIIIa type V (human, UniProt P08637 17-208, limits assumed) (assay: SPR (Biacore), FcγR over captured antibody).
T9 construct: also called FcγRIIIaV; FcgRIIIaV
T9 sequence (P08637 other isoform, or with tags, fused parts or gaps limits assumed): as the sequence (P08637 17-208 F176V limits assumed) above, with A179S counted along it

| Binder | Kd |
| --- | --- |
| B10 | 64000 nM |
| B11 | 75000 nM |
| B12 | 72000 nM |
| B13 | 78000 nM |
| B14 | 52000 nM |

What follows are binders tested against T1, FcγRIIb (assay: ratio of SPR KD values, parent IL6R-B3/IL6R-L).

| Binder | KD(IIb) of the parent polypeptide/KD(IIb) of altered polypeptide |
| --- | --- |
| B1 | 62 fold |
| B2 | 95.4 fold |
| B3 | 15.8 fold |
| B4 | 13.9 fold |
| B5 | 63.7 fold |
| B6 | 53.7 fold |
| B7 | 17.6 fold |
| B8 | 13.8 fold |
| B9 | 60.4 fold |

What follows are binders tested against T1, FcγRIIb (assay: SPR (Biacore); KD for FcγRIIaH divided by KD for FcγRIIb of the same antibody; column head in Table 52-1).
Source text: as §1

| Binder | KD(IIaH)/KD(IIb) |
| --- | --- |
| B1 | 201 |
| B2 | 256 |
| B3 | 123 |
| B4 | 85.2 |
| B5 | 227 |
| B6 | 209 |
| B7 | 136 |
| B8 | 120 |
| B9 | 195 |

What follows are binders tested against T10, human FcγRIIa(H) (human, UniProt P12318 36-217) (assay: SPR, antibody captured by Protein L, human FcγR as analyte, pH 7.4, 25 C;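 note: biacore T100 or T200 with Protein L amine-coupled on a CM4 chip, FcγRs diluted in ACES saline with polysorbate 20, buffer-only injection as blank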).
T10 construct: also called hFcgRIIa(H); FcγRIIa type H
T10 sequence: T3 chain with R133H

| Binder | BINDING AMOUNT (RU) |
| --- | --- |
| B15 | 6.97 RU |

Biological target: T11, human FcγRIIa(R) (human, UniProt P12318 36-217)
T11 construct: also called hFcgRIIa(R); FcγRIIa type R
T11 chain: T3 chain
Test: as above

| Binder | BINDING AMOUNT (RU) |
| --- | --- |
| B15 | 9.1 RU |

Each binder was assayed against T12, human FcγRIIIa(V) (human, UniProt P08637 17-208, limits assumed) in the same assay as above.
T12 construct: also called hFcgRIIIa(V); allotype V158
T12 sequence (P08637 other isoform, or with tags, fused parts or gaps limits assumed): as the sequence (P08637 17-208 F176V limits assumed) above, with A179S counted along it

| Binder | BINDING AMOUNT (RU) |
| --- | --- |
| B15 | 39.5 RU |

The binders below were run against T13, human FcγRIa (human, UniProt P12314 16-292, limits assumed) in the same assay as above.
T13 construct: also called hFcgRIa; hFcgRI
T13 sequence (P12314 16-292 limits assumed): as the sequence (P12314 16-292 limits assumed) above

| Binder | BINDING AMOUNT (RU) |
| --- | --- |
| B15 | 227 RU |

Each binder was assayed against T1, FcγRIIb (assay: SPR (Biacore); KD for FcγRIIaR divided by KD for FcγRIIb of the same antibody; column head in Table 52-1).
Source text: as §1

| Binder | KD(IIaR)/KD(IIb) |
| --- | --- |
| B1 | 18.2 |
| B2 | 26.3 |
| B3 | 16.1 |
| B4 | 13.4 |
| B5 | 20.5 |
| B6 | 17.1 |
| B7 | 17.7 |
| B8 | 18.5 |
| B9 | 22.7 |
